Experimental findings from article PMC8427654 are described below.

This test deals with T1, split luciferase wild-type (WT) Apaf-1 (apoptotic protease activating factor-1), O14727.
T1 chain: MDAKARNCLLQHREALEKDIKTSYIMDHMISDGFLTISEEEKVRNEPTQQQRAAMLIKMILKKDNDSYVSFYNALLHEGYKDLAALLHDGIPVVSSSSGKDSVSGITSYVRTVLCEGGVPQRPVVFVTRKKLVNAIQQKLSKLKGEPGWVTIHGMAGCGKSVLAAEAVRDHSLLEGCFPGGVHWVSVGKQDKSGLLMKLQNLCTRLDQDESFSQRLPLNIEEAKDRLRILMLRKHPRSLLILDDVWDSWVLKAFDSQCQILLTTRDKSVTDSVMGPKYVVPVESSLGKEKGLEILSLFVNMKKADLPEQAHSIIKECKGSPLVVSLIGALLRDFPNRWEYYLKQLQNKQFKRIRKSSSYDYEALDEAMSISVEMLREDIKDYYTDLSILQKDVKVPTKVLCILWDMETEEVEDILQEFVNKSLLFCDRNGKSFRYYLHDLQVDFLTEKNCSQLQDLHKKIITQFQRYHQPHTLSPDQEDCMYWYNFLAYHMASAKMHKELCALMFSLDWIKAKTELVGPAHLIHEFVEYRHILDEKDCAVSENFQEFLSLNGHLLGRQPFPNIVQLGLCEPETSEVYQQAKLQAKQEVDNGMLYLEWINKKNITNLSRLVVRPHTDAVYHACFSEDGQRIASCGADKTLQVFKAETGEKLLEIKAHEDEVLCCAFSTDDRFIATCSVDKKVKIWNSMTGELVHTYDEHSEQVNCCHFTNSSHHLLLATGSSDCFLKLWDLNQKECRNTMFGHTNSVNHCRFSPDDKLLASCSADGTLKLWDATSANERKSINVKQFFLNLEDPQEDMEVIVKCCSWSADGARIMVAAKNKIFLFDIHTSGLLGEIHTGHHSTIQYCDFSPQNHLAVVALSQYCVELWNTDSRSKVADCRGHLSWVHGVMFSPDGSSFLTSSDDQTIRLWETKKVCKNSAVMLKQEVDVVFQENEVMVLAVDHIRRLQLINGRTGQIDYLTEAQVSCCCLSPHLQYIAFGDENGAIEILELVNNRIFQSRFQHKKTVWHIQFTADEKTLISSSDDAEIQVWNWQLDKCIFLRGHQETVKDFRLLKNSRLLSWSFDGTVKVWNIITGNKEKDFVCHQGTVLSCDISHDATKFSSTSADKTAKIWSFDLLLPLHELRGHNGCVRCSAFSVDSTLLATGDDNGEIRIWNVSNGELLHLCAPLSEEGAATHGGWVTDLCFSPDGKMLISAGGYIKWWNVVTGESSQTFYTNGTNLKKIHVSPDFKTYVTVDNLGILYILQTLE
As to the kind of experiment: split reporter. The settings on record: remark: other sources report otherwise.

B1: split luciferase wild-type (WT) Apaf-1 (apoptotic protease activating factor-1), O14727 1-1248 (natural protein)
chain: T1 chain
Molecule B1 registered a luciferase activity, fold over pcDNA3 transfection control of 32 fold.
